Data on two molecules can be found in US20140220040A1.

The target in the test is Human LRP6-Fc (R&D Systems), recombinant human LRP6 containing the complete extracellular domain (human) (UniProt O75581). The experiment in a line: SPR (BIAcore), mAb captured on anti-mouse chip, Fc-antigen injected, 1:1 model.
Human LRP6-Fc (R&D Systems), recombinant human LRP6 containing the complete extracellular domain (human), sequence (O75581 20-1370 V1062I): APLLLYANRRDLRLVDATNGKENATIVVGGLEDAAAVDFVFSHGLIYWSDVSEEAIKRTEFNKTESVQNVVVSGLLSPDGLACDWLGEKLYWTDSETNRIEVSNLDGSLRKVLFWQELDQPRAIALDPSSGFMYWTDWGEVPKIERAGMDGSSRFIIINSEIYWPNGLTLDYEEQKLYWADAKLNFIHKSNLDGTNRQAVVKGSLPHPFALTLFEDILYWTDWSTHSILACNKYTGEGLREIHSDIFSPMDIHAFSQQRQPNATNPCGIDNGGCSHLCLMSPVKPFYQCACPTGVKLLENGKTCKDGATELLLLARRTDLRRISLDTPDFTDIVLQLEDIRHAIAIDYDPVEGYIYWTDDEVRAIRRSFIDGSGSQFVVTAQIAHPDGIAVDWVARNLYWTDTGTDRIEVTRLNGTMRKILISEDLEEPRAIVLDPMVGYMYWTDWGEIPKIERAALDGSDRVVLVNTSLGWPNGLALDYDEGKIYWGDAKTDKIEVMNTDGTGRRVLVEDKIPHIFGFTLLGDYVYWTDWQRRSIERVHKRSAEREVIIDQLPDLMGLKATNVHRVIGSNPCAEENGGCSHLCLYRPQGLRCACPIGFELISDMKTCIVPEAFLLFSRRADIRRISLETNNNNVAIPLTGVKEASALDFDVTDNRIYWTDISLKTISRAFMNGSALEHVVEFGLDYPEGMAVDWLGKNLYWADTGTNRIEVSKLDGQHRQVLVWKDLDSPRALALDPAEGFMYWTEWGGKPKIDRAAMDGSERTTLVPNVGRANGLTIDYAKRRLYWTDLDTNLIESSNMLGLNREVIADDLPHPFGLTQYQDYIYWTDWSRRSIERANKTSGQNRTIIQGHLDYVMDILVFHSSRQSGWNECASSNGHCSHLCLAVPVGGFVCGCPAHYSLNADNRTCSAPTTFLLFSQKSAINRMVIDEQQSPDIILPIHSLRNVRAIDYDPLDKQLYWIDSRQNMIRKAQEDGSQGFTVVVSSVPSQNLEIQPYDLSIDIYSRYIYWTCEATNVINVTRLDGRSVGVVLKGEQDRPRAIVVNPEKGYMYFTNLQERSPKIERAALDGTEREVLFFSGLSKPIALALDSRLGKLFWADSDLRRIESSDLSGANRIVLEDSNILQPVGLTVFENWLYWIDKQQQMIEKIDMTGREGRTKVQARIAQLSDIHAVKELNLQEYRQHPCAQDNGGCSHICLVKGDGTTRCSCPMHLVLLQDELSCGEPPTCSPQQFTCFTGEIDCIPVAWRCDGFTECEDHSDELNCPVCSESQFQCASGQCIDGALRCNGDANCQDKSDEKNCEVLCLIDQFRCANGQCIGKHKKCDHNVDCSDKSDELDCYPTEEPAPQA

B1: anti-LRP6 monoclonal antibody 995.5 (antibody, part only; not given: light chain, not determined, V domains shown, part only)
VH: RMKVLSLLYLLTAIPGILSDVQVQESGPGLVKPSQSLSLTCSVTGYSITSGYYWNWIRQFPGNKLEWMGYISYDGRNNYNPSLKNRISITRDTSKNQFFLKLNSVTTEDTATYYCARENSNYPYYYDYWGQGTTLTVSSAKT
As a reminder, the Kd is the concentration at which binding is half-saturated. A word on the koff: it is the rate constant with which the complex falls apart. The kon is a measure of how fast the partners come together. For the molecule B1, the Kd turned out to be 1.09 nM, the koff was determined as 4.51e-05 s⁻¹ and the kon stood at 41400 M⁻¹ s⁻¹.

B2: anti-LRP6 monoclonal antibody 993.9 (antibody, part only; not given: light chain, not determined, V domains shown, part only)
VH: DVQVQESGPGLVKPSQSLSLTCSVTGYSITSGYYWNWIRQFPGNKLEWMGYISYDGRNNYNPSLKNRISITRDTSKNQFFLKLNSVTTEDTATYYCARENSNYPYYYDYWGQGTTLTVSSAKT
For B2, the Kd amounted to 2.05 nM, the koff amounted to 5.7e-05 s⁻¹ and the kon was determined as 28000 M⁻¹ s⁻¹.
